Where “and” joins values, the source holds several entries; their conditions need not be identical. Identical values can stand only once.
Key:
Cadonilimab (hG1WT) = test: BLI
[1] = target: human PD-1 and CTLA-4 mixture (mol/mol: 1/1) immobilized on AMC sensors (human); test: BLI
[2] = target: fusion protein of human Fc with human PD-1 extracellular domain (PD1-hFc) (human) (UniProt Q15116); test: ELISA
[3] = target: fusion protein of mouse Fc with human PD-1 extracellular domain (PD1-mFc) (Homo sapiens (Human).) (UniProt Q15116); test: ELISA
[4] = target: human CTLA-4 on 293 T-CTLA4 cells (human) (UniProt P16410); test: flow cytometry on cells
[5] = target: human PD-1 on 293 T-PD1 cells (human) (UniProt Q15116); test: flow cytometry on cells
[6] = target: FcγRIIIa_F158 (FcγRIIIa 158 F alleles) (UniProt P08637); test: BLI
[7] = target: FcγRIIIa_V158 (FcγRIIIa 158 V alleles); test: BLI
FcγRIa = FcγRIa (UniProt P12314); test: BLI
UniProt P12314, sequence (P12314 16-374): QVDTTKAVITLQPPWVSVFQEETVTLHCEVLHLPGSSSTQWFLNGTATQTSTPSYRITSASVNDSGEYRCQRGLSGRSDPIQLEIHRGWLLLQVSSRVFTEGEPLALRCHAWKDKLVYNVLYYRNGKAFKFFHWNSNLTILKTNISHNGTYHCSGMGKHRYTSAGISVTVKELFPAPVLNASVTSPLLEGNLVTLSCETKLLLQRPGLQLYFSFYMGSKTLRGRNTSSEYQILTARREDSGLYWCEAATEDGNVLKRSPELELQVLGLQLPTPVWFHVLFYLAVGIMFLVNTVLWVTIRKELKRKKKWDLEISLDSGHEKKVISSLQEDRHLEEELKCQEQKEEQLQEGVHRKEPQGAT

UniProt P08637, sequence (P08637 17-254): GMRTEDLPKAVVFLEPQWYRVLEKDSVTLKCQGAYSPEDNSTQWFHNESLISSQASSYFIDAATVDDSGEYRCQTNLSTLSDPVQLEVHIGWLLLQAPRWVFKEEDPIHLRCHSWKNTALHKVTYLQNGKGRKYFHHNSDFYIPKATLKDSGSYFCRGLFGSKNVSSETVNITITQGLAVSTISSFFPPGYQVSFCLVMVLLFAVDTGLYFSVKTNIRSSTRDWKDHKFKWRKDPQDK
UniProt P16410, sequence (P16410 36-223): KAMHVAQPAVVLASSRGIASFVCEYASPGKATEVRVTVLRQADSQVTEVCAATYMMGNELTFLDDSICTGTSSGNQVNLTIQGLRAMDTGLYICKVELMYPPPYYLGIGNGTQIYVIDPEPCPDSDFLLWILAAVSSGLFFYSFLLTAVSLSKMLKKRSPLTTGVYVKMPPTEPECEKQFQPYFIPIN

## C1q (complex)
Cadonilimab (hG1WT)
  Kd: 2.53 nM
  koff: 0.00517 s⁻¹
  kon: 2.05e+06 M⁻¹ s⁻¹

## Cadonilimab (bispecific antibody)
[1]
  fold higher binding avidity than with low-density PD-1: 10 fold
[2]
  EC50: 0.792 nM and 1.43 nM
[3]
  EC50: 0.051 nM
[4]
  EC50: 3.93 nM and 3.09 nM
[5]
  EC50: 1.81 nM and 2.62 nM

## Cadonilimab (hG1WT) (bispecific antibody)
[6]
  Kd: 221 nM
  koff: 0.0247 s⁻¹
  kon: 112000 M⁻¹ s⁻¹
[7]
  Kd: 177 nM
  koff: 0.0214 s⁻¹
  kon: 121000 M⁻¹ s⁻¹
FcγRIa
  Kd: 5.92 nM
  koff: 0.00181 s⁻¹
  kon: 306000 M⁻¹ s⁻¹

Source: publication PMC10012886
